Substrate in the data set: O=C[C@H](O)COP(=O)(O)O
Nature of the data set: purified protein. The settings on record: phosphorylation direction, 0.6 mM NAD+, 50 mM triethanolamine, 50 mM sodium phosphate (printed 'bisphosphate'), 0.2 mM EDTA, 25 °C, pH not stated, G3P 0.25-5 mM.

B1: GeGAPDH1 (Gastrodia elata) (protein)
chain: MASTAFVGSVTPLSEASFPFASSTRAPEPFRVFCWRSRSSEGSSVLCASTSCSKFPLAAISTQKSNRRNFQHTKATATETPPVVSRSSSDGKTKVGINGFGRIGRLVLRIAASRDDIEVVAVNDPFVDAKYMAYMFKYDSTHGTFKGTIKVVDESTIEIDGKRIAVTSKRDPSEITWSDFGAEYVVESSGVFTTMDKASAHLKGGAKKVVISAPSADAPMFVVGVNEQMYQPHMNIVSNASCTTNCLALLAKVVHEEFGIVEGLMTTVHATTATQKTVDGPSMKDWRGGRGASQNIIPSSTGAAKAVGKVLPELNGKLTGMAFRVPTTNVSVVDLTCRLANDASYEDVKAAVRAASEGCLKGILGYTDEDVVSNDFIGDSRSSIFDAKAGIGLGTNFMKLVSWYDNEWGYSNRVLDLIQHVARVCAHK
By Km is commonly meant the substrate concentration at which the rate is half of its maximum. Take B1: the Km was 312 µM.

The values are drawn from paper PMC12197075, “Identification of the Glyceraldehyde-3-Phosphate Dehydrogenase (GeGAPDH) Gene Family in Gastrodia elata Revealing Its Response Characteristics to Low-Temperature and Pathogen Stress” (Plants, 2025).
